The target of this assay is RSV F DS-Cav1 (human respiratory syncytial virus) (UniProt P03420). Nature of the assay: BLI; […] (AHC) biosensors, […] (300-0.41 nM); Octet RED96e; […]. (In general: Biolayer interferometry detects binding as a change in optical thickness at a sensor tip.)
UniProt P03420, sequence (P03420 26-513): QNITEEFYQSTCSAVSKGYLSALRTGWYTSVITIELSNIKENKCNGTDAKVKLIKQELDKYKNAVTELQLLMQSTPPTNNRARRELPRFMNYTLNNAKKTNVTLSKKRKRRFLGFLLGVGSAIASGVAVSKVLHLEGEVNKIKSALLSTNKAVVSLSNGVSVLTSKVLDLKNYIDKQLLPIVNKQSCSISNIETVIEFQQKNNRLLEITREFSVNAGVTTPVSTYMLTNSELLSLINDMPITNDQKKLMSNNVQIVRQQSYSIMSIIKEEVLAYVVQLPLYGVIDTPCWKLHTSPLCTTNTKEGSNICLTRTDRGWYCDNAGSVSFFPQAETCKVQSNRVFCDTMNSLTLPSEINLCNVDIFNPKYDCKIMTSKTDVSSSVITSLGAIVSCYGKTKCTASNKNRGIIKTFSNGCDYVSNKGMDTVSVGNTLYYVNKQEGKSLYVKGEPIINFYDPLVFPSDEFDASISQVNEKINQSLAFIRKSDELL

MPE8 Fab, sequence (VH): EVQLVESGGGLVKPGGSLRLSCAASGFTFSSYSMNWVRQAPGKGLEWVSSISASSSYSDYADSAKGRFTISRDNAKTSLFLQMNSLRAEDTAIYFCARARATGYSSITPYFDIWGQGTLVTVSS
MPE8 Fab, sequence (VL): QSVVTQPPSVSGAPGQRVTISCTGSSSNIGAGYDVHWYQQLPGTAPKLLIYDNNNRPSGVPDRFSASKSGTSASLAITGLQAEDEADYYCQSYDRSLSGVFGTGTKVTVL

With MPE8 Fab, the dissociation constant Kd is < 1 pM, the off-rate constant (koff) is < 1e-07 s⁻¹ and the kon worked out at 360000 M⁻¹ s⁻¹.

As a reminder, the Kd is the constant that tells how readily two partners part at equilibrium. In general, koff refers to a measure of how fast the partners let go of each other. Lower therefore signals a long-lived complex. Usually kon stands for a measure of how fast the partners come together. A high value points to fast association.

For the origin of these results see article PMC8921277.
